2 molecules from patent publication US20130129701, “Methods and Compositions for Sequence Specific RNA Endonucleases” (published 2013) can be followed below.

For series [1], the target named is T1, PUF-R6(SYxxR) purified (Homo sapiens, UniProt Q14671 Q14671:828-1176, N1043S/Q1047R).
T1 sequence: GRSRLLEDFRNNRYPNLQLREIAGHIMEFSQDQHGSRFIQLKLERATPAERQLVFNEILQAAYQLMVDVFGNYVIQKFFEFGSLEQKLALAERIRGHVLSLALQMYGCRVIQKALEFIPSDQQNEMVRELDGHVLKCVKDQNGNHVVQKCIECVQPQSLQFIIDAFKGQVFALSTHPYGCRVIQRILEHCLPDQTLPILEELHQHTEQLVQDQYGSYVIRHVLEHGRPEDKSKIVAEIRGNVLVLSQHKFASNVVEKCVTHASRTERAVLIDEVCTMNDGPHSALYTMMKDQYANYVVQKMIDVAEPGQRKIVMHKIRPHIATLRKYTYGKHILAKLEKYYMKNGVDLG
The series is described as follows: EMSA; 0.2 uM protein, 1 nM biotinylated RNA, 1 mM MgCl2, room temperature. As to the method: Protein concentration was determined by Bradford assay. RNAs were generated by in vitro transcription and purified on denaturing gels. 50 pmol of RNAs were labeled at the 3′ end with biotinylated cytidine bisphosphate using T4 RNA ligase following manufacturer's directions (Thermo Scientific Pierce RNA 3′ End Biotinylation Kit). In each sample, 20 fmol of labeled RNA (1 nM) and 4 pmol of proteins (0.2 μM) were incubated in binding buffer (10 mM HEPES, pH 7.3, 20 mM KCl, 1 mM MgCl₂, 1 mM DTT, and 0.1 g/L tRNA) for 1 hour at room temperature. The binding reactions were separated by electrophoresis on 6% nondenaturing PAGE run with 1×TBE at 4° C., transferred to nylon membranes, and crosslinked to the membrane by UV. Biotin-labeled RNA was detected by chemiluminescence using the Thermo Scientific LightShift Chemiluminescent RNA EMSA Kit following manufacturer's directions.

In series [2] the target is T1, PUF-R6(SYxxR) purified. The series is described as follows: structure; PDB 2yjy. The method, then:
Crystals of PUF-R6(SYxxR) mutant and C3 RNA (5′-[…]) were grown by sitting drop vapor diffusion. RNA oligonucleotide was obtained from Dharmacon (Lafayette, Colo.). The protein-RNA complex was prepared by mixing a 1:1.1 molar ratio of purified protein (3.5 mg/ml) and RNA in a buffer containing 20 mM Tris-HCl, pH 7.5; 100 mM NaCl; and 1 mM DTT. One μl of complex solution was added to 1 μl of a well solution containing 30% PEG 3350, 0.2M ammonium tartrate dibasic, and 0.1M bis-Tris, pH 5.5. Crystals were flash frozen after adding an equal volume of cryoprotectant solution (32% PEG 3350, 20% ethylene glycol) to the drop. Diffraction data were collected at the SER-CAT beamline ID-22, Advanced Photon Source at wavelength 1.0 Å and −180° C. All data sets were indexed, integrated, and scaled with the HKL2000 suite (21). The structure was determined by molecular replacement using the structure of human Pumilio1 (PDB ID: 1M8Y) as a search model with PHASER (22). Two complexes are present in the asymmetric unit. Iterative model building was performed with COOT (23), and the resulting models were refined with PHENIX (24). All Phi-Psi angles are within allowable regions of the Ramachandran plot. The atomic coordinates and structure factors have been deposited in the Protein Data Bank (PDB ID: 2yjy).

With UGCAUAUA (ssRNA) [C3 RNA], the binding result with PUF-R6(SYxxR) purified [1] was “binds”. In the case of AUUGCAUAUA (ssRNA) [C3 RNA crystallization 10-mer], the binding result in the series with PUF-R6(SYxxR) purified [2] is on record as “binds”.
